From the supplement of paper PMC10567573

B1: C8orf76 (parent)
chain: YCAKLCEPQWFYEETESSDDVEVL

Variants of: B1
Assay: protein stability index of a GFP-peptide fusion (GPS, HEK-293T) (PSI 1-6); higher = more stable
Conditions: c terminus: a fixed tail appended
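Note: lentivirally expressed fusions sorted by FACS into six bins by GFP to DsRed ratio, PSI derived from sequencing read proportions per bin multiplied by bin number.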

Protein stability index, by site and new letter:
W10: I 3.45 | M 3.51 | F 3.22 | E 3.98 | V 3.35 | P 3.92 | S 4.48 | A 4.04 | H 3.52 | C 3.87 | K 4.15 | T 4.34 | Q 4.45 | D 4.5 | Y 2.71 | L 3.04 | G 4.02 | R 4.74 | N 4.07
V23: E 2.33 | C 2.47 | A 2.68 | D 2.41
P8: N 2.69 | E 3.1 | A 2.09 | Q 2.55 | I 1.58 | H 2.12 | K 1.62 | W 2.27 | C 1.73 | V 2.19 | S 2.62 | Y 1.76 | L 1.67 | G 2.56 | D 3.18 | T 2.55 | R 1.86 | M 2.32 | F 1.94
E16: M 2.31 | H 3.15 | V 1.53 | I 2.14 | G 1.87 | S 1.74 | Q 1.54 | N 1.89 | D 2.41 | P 1.65 | A 2.25 | C 1.58 | Y 2.59 | F 2.19 | R 1.77 | T 2.22 | K 2.28 | L 3.46 | W 1.65
S17: R 2.25 | Q 2.35 | D 3.15 | P 2.34 | W 2.74 | F 1.87 | L 1.98 | M 2.14 | N 2.4 | V 2.25 | Y 2.24 | T 2.42 | C 1.68 | E 2.85 | G 3.01 | K 2 | A 2.38 | I 1.83 | H 1.87
F11: G 3.43 | D 4.38 | V 3.38 | L 3.56 | C 3.41 | N 3.48 | Q 3.57 | K 3.96 | H 2.71 | I 2.75 | T 3.48 | Y 1.88 | W 2.63 | R 2.89 | E 4.83 | A 3.01 | S 3.54 | M 3.28 | P 3.44
Y12: V 2.16 | W 1.8 | K 2.39 | S 2.52 | F 2.43 | C 1.98 | E 3.35 | R 2.76 | Q 2.23 | H 2.44 | P 3.15 | D 3.63 | A 2.28 | G 2.62 | T 1.82 | L 2.14 | I 1.97 | N 2.62 | M 1.97
C6: A 2.95 | T 1.84 | S 2.18 | P 2.86 | K 2.93 | G 1.52 | Q 3.02 | F 2.41 | L 2.96 | H 2.32 | W 1.77 | N 2.36 | I 2.88 | D 2.93 | M 2.79 | V 3.3 | R 2.21 | E 3.63 | Y 2.29
E7: N 2.67 | Q 3.27 | Y 2.2 | L 2.83 | C 2.69 | W 1.63 | H 2.57 | T 2.5 | I 2.32 | S 2.82 | A 2.27 | G 2.43 | P 2.46 | F 2.33 | V 2.3 | M 2.49 | R 2.6 | D 3.69 | K 2.78
E13: R 1.64 | Q 1.65 | Y 1.55 | L 2.12 | S 2.51 | V 1.57 | N 1.6 | D 2.04 | I 2.1 | K 1.42 | M 2.13 | F 2.16 | W 1.8 | P 1.92 | H 1.91 | G 1.26 | T 2.1 | A 2.11
Q9: N 2.17 | S 2.4 | G 2.15 | L 2.14 | E 3.13 | D 3.86 | R 1.41 | H 2.13 | I 2.22 | T 2.29 | M 1.88 | V 1.74 | Y 2.66 | C 1.93 | P 2.03 | K 2.09 | F 2.19 | A 2.46 | W 1.04
L5: R 2.44 | T 2.78 | Y 3.33 | P 2.15 | N 3.31 | W 1.28 | Q 2.63 | V 2.4 | S 2.04
D19: I 1.76 | H 2.25 | E 2.35 | S 2.08 | N 2.26 | Y 1.76 | G 2.09 | P 1.57 | A 2.15 | V 2.07 | M 1.58 | T 2.19 | Q 2.2 | R 2 | W 1.41 | F 2.1 | K 2.3 | L 1.76 | C 1.4
E14: A 2.14 | N 2.37 | W 1.46 | V 1.86 | Y 2.04 | R 1.8 | L 2.29 | G 2.11 | T 2.17 | Q 1.72 | M 2.78 | I 1.23 | H 2.1 | C 1.8 | F 2.24 | S 2.15 | D 2.36 | K 1.39 | P 1.84
S18: E 2.54 | Q 2.38 | Y 2.29 | R 2 | K 2.28 | I 1.88 | H 2.06 | V 2.1 | D 2.6 | F 1.49 | C 2.13 | P 2.3 | A 2.54 | T 2.11 | M 2.34 | N 2.33 | G 2.39 | L 2.23
V21: M 2.19 | A 2.3 | H 2.27 | P 2.38 | E 2.43 | C 2.41 | S 2.46 | R 2.27 | N 2.35 | Q 2.53 | D 2.53 | Y 2.48 | W 2.04 | L 2.07 | I 2.39 | F 2.12 | G 2.56 | K 2.99 | T 3.28
T15: N 2.08 | S 2.54 | E 2.72 | G 2.27 | Q 2.43 | C 2.16 | K 2.08 | V 2.17 | R 2.9 | I 1.91 | W 1.81 | L 1.75 | A 2.63 | H 2.12 | Y 1.96 | M 1.91 | D 2.9 | P 2.84 | F 2.02
D20: L 1.67 | Q 1.86 | Y 1.76 | F 2.04 | P 1.81 | R 1.5 | S 2.29 | T 2.18 | C 2.49 | N 2.05 | A 2.27 | V 1.86 | I 1.74 | G 1.37 | E 1.92 | W 1.79 | K 2.01 | M 2.02 | H 1.91
E22: G 2.31 | R 2.14 | C 2.06 | I 2.03 | Q 2.61 | P 2.33 | K 2.21 | T 2.07 | F 1.6 | V 1.36 | Y 1.63 | W 2.28 | S 2.31 | D 1.98 | M 1.49 | H 2.06 | A 2.2 | N 2.14 | L 1.38
